Reference: patent US20230357354A1 (ENCEFA, published 2023)

What was measured:
[1] = target: human CD38 on cells (Daudi cells; CD38^+ Jurkat T cells) (human, UniProt P28907 1-300); assay: cell-based or functional assay
[2] = target: T1, recombinant human CD38 (Acrobio, ref CD8-H5224) (human, UniProt P28907 43-300); assay: SPR, Biacore 3000, CM5 chip, recombinant human CD38
T1 construct: Bought protein used in Biacore
Description: Binding affinity was measured and reported by the equilibrium dissociation constant (KD). Recombinant human CD38 (Acrobio, ref CD8-H5224) dissolved in milliQ water was used.

| EC50, glucose uptake (2-NBDG fluorescence), human Daudi cells [1] | Kd [2] | Binder |
| --- | --- | --- |
| ~0.1 nM | – | CRDQNFVILEFPVEEQC [looped peptide CRDQNFVILEFPVEEQC (SEQ ID NO: 9), free peptide] |
| ~13 nM | 2.3 nM | NSRDQNFVILEFPVE [CD31 peptide NSRDQNFVILEFPVE (linear)] |
